Data: patent publication US20260137822A1

Experiments:
[1] = biological target: human FOLR1 (recombinant antigen) (human) (UniProt P15328); test: BLI (Octet), construct captured on AHC biosensor, hFOLR1 as analyte
FOLR1 on OVCAR3 cells = FOLR1 on OVCAR3 cells (UniProt P15328); test: cell binding to FOLR1-positive OVCAR3 cells
[2] = biological target: human FOLR1 (recombinant antigen) (human) (UniProt P15328); test: ELISA on hFOLR1
[3] = biological target: FOLR1 on cells (OVCAR3, OV-90) (UniProt P15328); test: flow cytometry on FOLR1 expressing OV-90 cells, Geomeans RL1-H against Conc (nM) [top panel]
Chain of FOLR1 on cells (OVCAR3, OV-90) (P15328 25-234): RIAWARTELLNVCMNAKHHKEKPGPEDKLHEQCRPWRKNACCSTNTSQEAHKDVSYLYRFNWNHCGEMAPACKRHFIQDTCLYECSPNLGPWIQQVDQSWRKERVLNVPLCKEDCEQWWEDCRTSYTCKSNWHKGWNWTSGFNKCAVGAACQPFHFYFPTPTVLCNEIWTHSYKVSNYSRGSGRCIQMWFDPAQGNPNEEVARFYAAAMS

Chain of FOLR1 on OVCAR3 cells (P15328 25-234): as above
Chain of human FOLR1 (recombinant antigen) (human) (P15328 25-234 limits assumed): as the sequence (P15328 25-234) above

Binder | Kd [1] | koff [1] | kon [1] | EC50 (FOLR1 on OVCAR3 cells) | EC50 [2] | EC50 (read off the curve) [3]
Anti-FOLR1x4 GGSx4 (monospecific tetravalent VHH-VHH-Fc) (antibody, part only; not given: hinge and wild-type Fc, not shown: a dimerising Fc or GST) chain, part: QVQLVESGGGLVQPGGSLRLSCAASGFTVSNSVMAWYRQTPGNEREFVAIINSIGITNYADSVKGRFTISRDNSKNTLYLQMNSLRAEDTAVYVCNRNFDRIYWGQGTLVTVSSGGSGGSGGSGGSQVQLVESGGGLVQPGGSLRLSCAASGFTVSNSVMAWYRQTPGNEREFVAIINSIGITNYADSVKGRFTISRDNSKNTLYLQMNSLRAEDTAVYVCNRNFDRIYWGQGTLVTVSS | 2.85 nM | 0.000853 s⁻¹ | 299000 M⁻¹ s⁻¹ | 0.81 nM | 0.14 nM | –
Anti-FOLR1x4 GGGGSx3 (monospecific tetravalent VHH-VHH-Fc) (antibody, part only; not given: hinge and wild-type Fc, not shown: a dimerising Fc or GST) chain, part: QVQLVESGGGLVQPGGSLRLSCAASGFTVSNSVMAWYRQTPGNEREFVAIINSIGITNYADSVKGRFTISRDNSKNTLYLQMNSLRAEDTAVYVCNRNFDRIYWGQGTLVTVSSGGGGSGGGGSGGGGSQVQLVESGGGLVQPGGSLRLSCAASGFTVSNSVMAWYRQTPGNEREFVAIINSIGITNYADSVKGRFTISRDNSKNTLYLQMNSLRAEDTAVYVCNRNFDRIYWGQGTLVTVSS | 2.86 nM | 0.000953 s⁻¹ | 333000 M⁻¹ s⁻¹ | 0.28 nM | 0.12 nM | –

The remaining binders from weak to strong by EC50 (FOLR1 on OVCAR3 cells), led by results:

Kd [1] | koff [1] | kon [1] | EC50 (FOLR1 on OVCAR3 cells) | EC50 [2] | EC50 (read off the curve) [3] | Binder
– | – | – | 0.71 nM | 0.12 nM | 2 nM | Farletuzumab (antibody, INN chains, looked up, V domains shown) VH: EVQLVESGGGVVQPGRSLRLSCSASGFTFSGYGLSWVRQAPGKGLEWVAMISSGGSYTYYADSVKGRFAISRDNAKNTLFLQMDSLRPEDTGVYFCARHGDDPAWFAYWGQGTPVTVSS VL: DIQLTQSPSSLSASVGDRVTITCSVSSSISSNNLHWYQQKPGKAPKPWIYGTSNLASGVPSRFSGSGSGTDYTFTISSLQPEDIATYYCQQWSSYPYMYTFGQGTKVEIKR
2.52 nM | 0.00087 s⁻¹ | 345000 M⁻¹ s⁻¹ | 0.49 nM | 0.11 nM | – | Anti-FOLR1x4 GGSx3 (monospecific tetravalent VHH-VHH-Fc) (antibody, part only; not given: hinge and wild-type Fc, not shown: a dimerising Fc or GST) chain, part: QVQLVESGGGLVQPGGSLRLSCAASGFTVSNSVMAWYRQTPGNEREFVAIINSIGITNYADSVKGRFTISRDNSKNTLYLQMNSLRAEDTAVYVCNRNFDRIYWGQGTLVTVSSGGSGGSGGSQVQLVESGGGLVQPGGSLRLSCAASGFTVSNSVMAWYRQTPGNEREFVAIINSIGITNYADSVKGRFTISRDNSKNTLYLQMNSLRAEDTAVYVCNRNFDRIYWGQGTLVTVSS
